This test has as its target fibrin (human fibrinogen treated with alpha-thrombin) (human) (UniProt P02679). Description: ELISA; human fibrinogen coated overnight on MaxSorb 96-well plates, wells treated with PBS (fibrinogen) or 100 nM alpha-thrombin in 1% sodium-citrate/PBS for one hour at room temperature (fibrin); ClfA in 1% sodium-citrate added at increasing concentrations for one hour; bound ClfA detected with polyclonal anti-ClfA and anti-rabbit-HRP; non-linear regression, one-site saturation.

Chain of clumping factor A (ClfA), purified recombinant (Q53653 40-899): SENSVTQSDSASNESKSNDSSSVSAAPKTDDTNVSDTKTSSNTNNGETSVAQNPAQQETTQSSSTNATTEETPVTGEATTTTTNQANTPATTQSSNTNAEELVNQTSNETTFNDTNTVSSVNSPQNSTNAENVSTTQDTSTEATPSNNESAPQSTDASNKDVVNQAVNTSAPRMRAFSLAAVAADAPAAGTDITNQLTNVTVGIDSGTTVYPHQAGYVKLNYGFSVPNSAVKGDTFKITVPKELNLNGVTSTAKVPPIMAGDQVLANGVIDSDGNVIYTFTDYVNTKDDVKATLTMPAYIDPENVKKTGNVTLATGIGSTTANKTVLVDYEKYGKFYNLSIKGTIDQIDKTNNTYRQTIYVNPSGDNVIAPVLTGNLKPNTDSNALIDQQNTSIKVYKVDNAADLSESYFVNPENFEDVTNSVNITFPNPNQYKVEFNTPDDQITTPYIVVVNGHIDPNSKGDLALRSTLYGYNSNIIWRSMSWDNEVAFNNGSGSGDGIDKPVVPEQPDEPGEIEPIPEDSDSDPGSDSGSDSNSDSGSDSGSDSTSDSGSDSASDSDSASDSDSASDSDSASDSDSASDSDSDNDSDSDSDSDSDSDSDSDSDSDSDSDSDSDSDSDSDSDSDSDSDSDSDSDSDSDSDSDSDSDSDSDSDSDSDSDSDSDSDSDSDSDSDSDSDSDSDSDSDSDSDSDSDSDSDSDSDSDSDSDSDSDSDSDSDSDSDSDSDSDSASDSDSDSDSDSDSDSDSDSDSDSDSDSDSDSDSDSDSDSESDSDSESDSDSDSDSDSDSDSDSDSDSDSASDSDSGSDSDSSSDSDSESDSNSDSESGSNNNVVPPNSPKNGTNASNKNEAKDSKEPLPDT

“clumping factor A (ClfA), purified recombinant (from UniProt Q53653 40-899) (natural protein)” had a Kd of 662 nM.

The Kd is the constant that tells how readily two partners part at equilibrium. A high value points to weaker binding.

Source of the values: publication PMC3197598.
